Data on 21 sequences can be found in the DeepSol protein solubility set.

This data set can be described thus: soluble on expression in E. coli; label from the status in PepcDB or PDB records.
Turning to “GAMDSSEMSTICDKTLNPSFCLKFLNTKFASPNLQALAKTTLDSTQARATQTLKKLQSIIDGGVDPRSKLAYRSCVDEYESAIGNLEEAFEHLASGDGMGMNMKVSAALDGADTCLDDVKRLRSVDSSVVNNSKTIKNLCGIALVISNMLPRN”, the “soluble on expression in E. coli” value is recorded as “soluble”. For “SLTTTEVVMENVTAFWEEGGTPVLKDINFKIERGQLLAVAGSTGAGKTSLLMMIMGELEPSEGKIKHSGRISFCSQFSWIMPGTIKENIIFGVSYDEYRYRSVIKACQLEEDISKFAEKDNIVLGEGGITLSGGQRARISLARAVYKDADLYLLDSPFGYLDVLTEKEIFESCVCKLMANKTRILVTSKMEHLKKADKILILHEGSSYFYGTFSELQNLQPDFSSKLGPSAQLKKKLQALKKKNAQLKWKLQALKKKLAQ” the value was “soluble”. As to “LNHIYNVAFWAEEIGKIVGLDEKRLAKLYLAGLLHDIGKVYIDERILNKEGRLTLQEYQEMKKHVDYSYNMVKDLMIWDIEDDVALWVVQHHEKFDGSGYPFGLKEEEITPEGRILKIADTLDA”, the “soluble on expression in E. coli” value is reported as “soluble”.

Take “MVLADLGRKIRNAIGKLGQSTVINEGELDLMLKEVCTALIESDVHIRLVKQLKDNVKKAINFEEIVGGANKRRYIQKTVFNELLKLVDPGVTPFTPTKGRRNVFMFVGLQGSGKTTTCTKMAYYYQRKGWKTCLICADTFRAGAFDQLKQNATKARIPFYGSYSEIDPVKIAAEGVEKFTQEGFEIIIVDTSGRHKQEASLFEEMLQVSNAVTPDNVVFVMDASIGQACEAQARAFSQTVDVASVIITKLDSHAKGGGALSAVAVTKSPVIFIGTGEHIDDFEIFKPKSFVQKLLGMGDIAGLVDMVNDIGIQDNKELVGRLKQGQFTLRDMYEQFQNIMKMGPFSQIMGMIPGFGSEFMTKGNEQESVNRLKRMMTVMDSMSDKELDHPKASELFTKEPNRVARVARGSGSHQQEVRDLLAQYKKFSDVVKKIGSIKGLFNGKNGDINPKNMNPAKMAQLNQQMAKMMDPRVLQQMGGMGGLQNMMQQMARAGKM”: the “soluble on expression in E. coli” value was “not soluble”.

On to “MKSLESMEQFQQLKNEENVVFMFSAEWCPDCRFVDPFMPEVEEKYSDFSFYYVDRDEFIDLCVKLDVFGIPSFVAYNKGEETGRYVNKDRKTQEQIEEFIEGLK”, for which the “soluble on expression in E. coli” value was “not soluble”. As for “KDWRDKDQSDGFGKVYVTEKVAQIKQIPFDASKLHSSPQMAAQHNMVDDGSGKVEIWRVENNGRIQVDQNSYGEFYGGDCYIILYTYPRGQIIYTWQGANATRDELTTSAFLTVQLDRSLGGQAVQIRVSQGKEPVHLLSLFKDKPLIIYKNGTSKKGGQAPAPPTRLFQVRRNLASITRIVEVDVDANSLNSNDVFVLKLPQNSGYIWVGKGASQEEEKGAEYVASVLKCKTLRIQEGEEPEEFWNSLGGKKDYQTSPLLETQAEDHPPRLYGCSNKTGRFVIEEIPGEFTQDDLAEDDVMLLDAWEQIFIWIGKDANEVEKKESLKSAKMYLETDPSGRDKRTPIVIIKQGHEPPTFTGWFLGWDSSKW”, the “soluble on expression in E. coli” value was “soluble”. On to “MAEASSLVGKLETEVEIKASAKKFHHMFTERPHHVSKATPDKIHGYGKLTVGKNKIEAVDPEKNLITFKVLEGDLMNEYKSFAFTLQVTPKQGESGSIAHWHLEYEKISEEVAHPETLLQFCVEISKEIDEHLLAEE”, for which the “soluble on expression in E. coli” value is on record as “soluble”. For “MGSDKIHHHHHHMIIEHARDMLKRERLFFDKIQAHIGEVNGTISIGCSSLIGQTLLPEVLSLYNSQFPNVEIQVQVGSTEQIKAHHRDYHVMITRGNKVMNLSNTHLFNDEHYFIYPKDRKEDVTKLPFIEFQADPIYINQIKQWYNDHLGHDYHATITVDQVATCKEMLLSGVGVTILPKIMMKNIDKNMFEFEKVTIDKKPLIRSTYMSYDASMLQLPQVDAFVNLMLNFIR” the value was “not soluble”; for “MAHHHHHHMGSCCAKSDTSVDIDDSGRGVERDTEDDNNVYILQYQSRGEVLKMLELEPTPHEASVMTQSPSLPTDGPAAEECAEAELSDPLSCSSTTIVTVRSERRAADRFSANSLTWTLPEVSATTVSTRFDHARTTSFMGSDDDFSSVEWSANSRKDRRLMLLRDRDRAAQRDMVMNEMDQRRFIAEHANRAHRAILVTYIRNRLEIERRVSYEEFLVERNAFLLHELEAREPLVRRTVELQAHSELLNKMQQQRLLRNRGK”, “soluble”. For “MYEGTLSMAVQSLGQAVNYCKRFGPRLVATKMLYKLLPQAGFSVCRQIEEYLKHYYLPDVAYHKTEFCGKIQADAPIWVMWWQGEERMPDVVRLAVASMRRFAGRRPVMLITKDNYHDYAKRSVDFYRYVEHGAISLTHFSDYVRFDLLHKYGGFWLDATLLMTAPIPDFVNDLRLFSIKHGTIRPGEQWSPMWSRNWTAYCWGGCAGDPFFDFMLRFFERYHEREGSVMIDYFLIDRIISVAYQEFVDVRNTIDAIPVNNVDVLTSPIVNTASINHRSDDNGTFLHKLSWKEPPQPDCGNGQRSWFGQLLDQYGIRLEHHHHHH”, the “soluble on expression in E. coli” value was “not soluble”. “MARKLFTSESVTEGHPDKICDQISDAVLDAIFSQDPMARVACETAVTTGLVLVTGEITTNCYVDIPKIVRSTIREIGYDRAKYGFDCDTCAVLTSIDEQSPDIAMGVNKALEAKTGEMSDEEIEAIGAGDQGMMFGFACDETPELMPMPISLAHKLAMRLSQVRKNGTLNYLRPDGKSQVTVEYDGDKPVRVDTVLISTQHGPEVDYDTIKRDVIEHVIKPVIPAELLDSKTKYLVNPTGRFVIGGPQGDSGLTGRKIIVDTYGGYARHGGGAFSGKDPTKVDRSAAYAARYVAKNIVAAGLARKCEVQLAYAIGVARPVSVRVDTFGTGIIPEEKIESLVNKYFDLRPAGIIKTLDLRRPIYKQTAAYGHFGRTDIDLPWERTDKPKS”: the “soluble on expression in E. coli” value is “not soluble”. Regarding “MGNCWFKGNPYFNRVSSNATKSESPKMQSPSERKEKDDSMLPSNAKEVEELRRESARNPLIAFTFEELKRITKNFRQDSLLGGGGFGRVYKGYITSDLREGLTIEEPLRVAVKVHDGDNSFQGHREWLAEVIFLGQLSHPNLVKLIGYCCEDDHRVLVYEFMPLGSVESHLFSRVMVPLPWFTRMKIALGAAKGLAFLHEAEKPVIYRDFKTSNILLDEEYNAKLSDFGLAKDGPVGDKSHVSTRIMGTYGYAAPEYIMTGHLTAMSDVYSYGVVLLELLTGRKSLDKSRPVREQTLADWAFPMLIQKKKVLGIVDPRLAEDYPVKAVQKTAMLAYHCLNRNPKARPLMRDIVATLEPLQQMEEDPSISLVSGTEV”, the “soluble on expression in E. coli” value was “soluble”. Consider “MAHHHHHHMEVEWDSETVTKFYNYLCGTISYQNCVELEKDLRIETGTEEKLNKHSCSSCSDHHGDVNISCFKFKKDDDDVLGEILDSEKDQENVKASLAEITQKAFTIYSNVIAKAASKGDNKVTLETDHFLRSDILRLVFSKYITTKAKERITEISSKSTKNIVTLANPLNMNEHDLNKIETDTIANLMHDYVGLQKNFLGRDYTKLIFDELVFIEYNNQFNSFGREYKNVRTDFYCWTYITSLDRQKQRGLYKLLKELSLLPYELNKKANLSLQIGTLFQFLYFSPNKSYLKKHCQGGYGKMDNGKKVTCIYVPFVHSNDDVEIKLYRSEYNGVNEESEESEGRGKTEPNVRDATTVPSNQTDDGAPFRVIKPESDSLIFLQTRNVSYEISKTKNKFFTVNFSISGPVSTERRL”, for which the “soluble on expression in E. coli” value is recorded as “not soluble”. In the case of “MELRVAGFLDNSMVNGEGLRSVLFLSGCRRRCPGCQNTDMQDFKYGESVSAEEIFNRIKSNVPIIKGVTFSGGDPLEQAEGLINISKEIKKLGLNIWCYTGYTYEEILKEKDSNKLELLKYIDVLVDGEFKAELTENAPKYAGSSNQRIIRLKLEHHHHHH” it was “not soluble”; in that of “MEHREALIALRTFLSTQILGQEKLIERLLIALLADGHMLVEGAPGLAKTKAIKELAEGIEAQFHRIQFTPDLLPADITGTEIYRPETGSFVFQQGPIFHNLVLADEINRAPAKVQSALLEAMAERQVSVGRSTYDLSPLFLVMATQNPIEQEGTYPLPEAQLDRFLMHVKIGFPDAAVERKILQQARGEALNGETKPERRVSQQAIFAARKEILGLYMADAVEEYLVQLVMATRTPAKFDPELAEWIAYGASPRGSISLDRCARAHAWLAGRDFVSPEDIQAVLFDVLRHRIILSFEAEAAGIDQDRVIQRILDVVAVALEHHHHHH”, “soluble”; in that of “MFFESCKSILYSDTLVPDIFITEYMPLLSSDSVKVYLYSLFLSKHNKKASTEEFAKSMGLEISTVKECLAQLESMGVLTWKEDGLVLHDLKEKEINKMYRLKTTSTPEEVASNCEKNKKRNEIIYTINNTFFQGVMSPSWYTDIDAWFDRYKFDEDVMLALFQYCFDHKGLIKPYIEKVAESWKNRNIRNAFDLDNYSIQYKKFKDVRSAIVKKLKLGRNLTEYEEAYVEKWVMDYNYDFDIIELALKKTTSKTNPNFDYLDSIITDWHNNNFKTKEEIMSYEAARKKKNSRTSSVSASVIVPQKGNFEQRKYEDEYLNSLYENA”, “not soluble”. In the case of “GSQNNECKMVDLRGAKVASFTVEGCELICLPQAFDLFLKHLVGGLHTVYTKLKRLEITPVVCNVEQVRILRGLGAIQPGVNRCKLISRKDFETLYNDCTNA”, the “soluble on expression in E. coli” value is reported as “soluble”. For “MHVAIIGGGISGIAAAFYLAQQKVSIDIFESENQIGGRAGSDFLQERRVDFGGKNIGRNYLLFREFARAYGDPAFEYFGINTSQLINGRIVSISREGSAWLNLLKIIRLCGLRKGITRLYPHIQAILNDRSQGVLCSDYFRALSENFDHLTLDRYLNQRCIDRVIRPITIRMNGAEPEECYPGNFGSNLALALDSFEQLTLGMYNLLDTFIASHRQESSFRILTGHRVTSIAKDQDKFRINYLNGAVSGTGSYDRIISALPAYSLAELLQDELPEASRLLNKISYFPVSIAIVKYRDEVFPQNRRAMVFDRNSPLSNAGAYGLNDLDIVRYTFSGKASRAAISEHSTPEEVISLGEKTASPYFSIKDNPKEAFVFRYFPKGLCAYSPKHHLLLEEIDRLVNRLSGFGTTGDYRRGASIEACFRAAKECIEKVVGDGSLEHHHHHH”, the “soluble on expression in E. coli” value is “soluble”.

Consider “MVTFMITSALHRAADWAKSVFSSAALGDPRRTARLVNVAAQLAKYSGKSITISSEGSKAAQEGAYRFIRNPNVSAEAIRKAGAMQTVKLAQEFPELLAIEDTTSLSYRHQVAEELGKLGSIQDKSRGWWVHSVLLLEATTFRTVGLLHQEWWMRPDDPADADEKESGKWLAAAATSRLRMGSMMSNVIAVCDREADIHAYLQDKLAHNERFVVRSKHPRKDVESGLYLYDHLKNQPELGGYQISIPQKGVVDKRGKRKNRPARKASLSLRSGRITLKQGNITLNAVLAEEINPPKGETPLKWLLLTSEPVESLAQALRVIDIYTHRWRIEEFHKAWKTGAGAERQRMEEPDNLERMVSILSFVAVRLLQLRESFTPPQALRAQGLLKEAEHVESQSAETVLTPDECQLLGYLDKGKRKRKEKAGSLQWAYMAIARLGGFMDSKRTGIASWGALWEGWEALQSKLDGFLAAKDLMAQGIKIG”, for which the “soluble on expression in E. coli” value is reported as “soluble”.

Regarding “MPQDYISYIRSKVGHDKIILNFAGGILTNDDGKVLMQLRGDKKTWTIPGGTMELGESSLETCKREFLEETGIEVEAVRLLNVYTHFEEVYPNGDAVQTIVFIYELTAVSDMAIDNFHNEETLKLQFFSHEEIAELESVSAKHRLMLEEYFSDSFAMGH”, the “soluble on expression in E. coli” value is “not soluble”. In the case of “MDQKREALVGPITSSPASILELSIFYEFLKAQWCAFTIGSSEPPISPRQLNLLSLLIGPSNSDQEIPRDTVAVSWVYVGFEFGESCEQFGATDEQLRGHFEYQMICTNVQCIYFVEDGKKRRMAGVTWYLRNDEKSKNHEDYNMIAIYETIREKRFEEVQKIRKLEKEEALRRGGWLGEPTDEYTSTIFSHLKLLTLKDGRLAVFACNADGEEEKFAFNERTERYEVLEDVVEVEDRPSNYLLRII” it was “not soluble”.
